Results: US20210079074A1 (Alector, published 2021)
Each block holds one binder with its values, some of them ahead of it.

Columns and labels:
[1] = biological target: T1, recombinant MS4A4A soluble polypeptide JS1; assay: ELISA, 1 ug/ml antibody
T1 construct: also called JS1.His; loop grafted antigen
Protocol: Anti-MS4A4A antibodies of the present disclosure were tested for their ability to bind to the different recombinant MS4A4A soluble polypeptides, as described in Example 2, as follows. Nucleic acid encoding the VH and VL domains of humanized anti-MS4A4A antibodies of the present disclosure were cloned into pcDNA3.4 vector which contains either the human IgG1 heavy chain constant domain or human kappa constant domain. The humanized anti-MS4A4A antibodies were expressed in Expi293 cells and were purified by Mab select antibody purification resin (GE Healthcare Life Science, cat#17519902) following the manufacture's protocol. ELISA was performed to measure binding of anti-MS4A4A antibodies of the present disclosure the recombinant MS4A4A soluble polypeptides. 1 μg/ml biotinylated antigens were preincubated on the streptavidin-coated ELISA plates (Thermo Scientific, cat#PI15120) for 1 hour. Plates were washed 3 times, followed by the addition of antibodies (1 μg/ml, 0.33 μg/ml, and 0.11 μg/ml antibodies. Plates were incubated at room temperature with shaking for 1 hr, washed 3 times, then 1/2500 dilution of HRP conjugates goat anti human kappa antibodies added (SigmaAldrich cat#. A7164-1ML).

[2] = biological target: T2, FcγRIIa receptor (H131 variant) (UniProt P12318 34-317, limits assumed); assay: cell-based or functional assay
T2 sequence (looked up): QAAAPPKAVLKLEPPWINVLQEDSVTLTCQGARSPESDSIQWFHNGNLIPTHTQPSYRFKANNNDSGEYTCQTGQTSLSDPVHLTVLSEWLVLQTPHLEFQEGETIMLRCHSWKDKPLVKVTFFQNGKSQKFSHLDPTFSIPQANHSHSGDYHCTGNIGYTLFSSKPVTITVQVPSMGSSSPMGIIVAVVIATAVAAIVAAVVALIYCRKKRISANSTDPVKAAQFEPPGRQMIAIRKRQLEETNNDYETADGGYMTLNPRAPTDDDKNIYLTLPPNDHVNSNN

[3] = biological target: FcγRIIIa receptor (V158 variant) (UniProt P08637 17-254); assay: cell-based or functional assay
human MS4A4A = human MS4A4A (human, UniProt Q96JQ5 1-239); assay: FACS, U937-huMS4A4A, 5 ug/ml
Protocol: Anti-MS4A4A antibodies tested were either mouse IgGs purified from hybridoma supernatant or human IgG1 Fc chimeras produced recombinantly in Expi293 cells. Affinity binding to cells was determined as follows. Briefly, cells were harvested, washed, and labeled with Aqua Live/Dead for viability discrimination. After a wash with PBS, 2×10\hat{ }4 cells were aliquoted per well in 96-well U-bottom plates and incubated with 50 μL of purified anti-MS4A4A antibody at various concentrations (3× dilutions starting at 10 μg/mL) in FACS buffer (PBS+2% FBS+1 mM EDTA). After this primary incubation, the supernatant was removed via centrifugation, washed 2× with 150 μL of ice-cold FACS buffer, and incubated with the appropriate secondary antibody on ice for 15 minutes. Following the secondary antibody incubation, the cells were again washed 2× with ice-cold FACS buffer and resuspended in a final volume of 200 μL of FACS buffer. Flow cytometry analysis was performed on a FACSCanto system (BD Biosciences). Binding data was expressed as Median Fluorescent Intensity (MFI).
These experiments were performed using anti-MS4A4A antibodies at a concentration of 5 μg/ml and were assayed for cell binding by flow cytometry.

Chain of FcγRIIIa receptor (V158 variant) (P08637 other isoform, or with tags, fused parts or gaps mutant limits assumed): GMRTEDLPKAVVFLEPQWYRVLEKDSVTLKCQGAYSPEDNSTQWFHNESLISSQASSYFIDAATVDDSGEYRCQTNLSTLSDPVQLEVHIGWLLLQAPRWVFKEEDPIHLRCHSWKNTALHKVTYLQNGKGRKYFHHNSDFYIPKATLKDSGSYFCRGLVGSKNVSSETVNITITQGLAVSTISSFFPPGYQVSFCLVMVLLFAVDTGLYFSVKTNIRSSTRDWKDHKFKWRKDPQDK

OD450 [1]: 0.12
B1: anti-MS4A4A antibody 4A-306 (antibody, human IgG1, V domains shown)
VH: QVQLVQSGAEVKKPGASVKVSCKASGYTFTNYWMQWVRQAPGQGLEWMGATHPGHGDTRYAQKFQGRVTMTRDTSTSTVYMELSSLRSEDTAVYYCAREEVYYGFRSYWYFDVWGRGTLVTVSS
VL: DIQMTQSPSSLSASVGDRVTITCRASESVDNYGVSFMNWYQQKPGKAPKLLIYGASNQGSGVPSRFSGSGSGTDFTLTISSLQPEDFATYYCQQSKEVPPTFGGGTKVEIK
notes: human IgG1/kappa

luminescence, ADCP reporter, 3.048316 ng/mL [2]: 51
luminescence, ADCP reporter, 9.144947 ng/mL [2]: 46
luminescence, ADCP reporter, 27.43484 ng/mL [2]: 44
luminescence, ADCP reporter, 82.30453 ng/mL [2]: 66
luminescence, ADCP reporter, 246.9136 ng/mL [2]: 60
luminescence, ADCP reporter, 740.7407 ng/mL [2]: 54
luminescence, ADCP reporter, 2,222.222 ng/mL [2]: 67
luminescence, ADCP reporter, 6,666.667 ng/mL [2]: 242
luminescence, ADCP reporter, 20,000 ng/mL [2]: 154
luminescence, ADCC reporter, 3.048316 ng/mL [3]: 338
luminescence, ADCC reporter, 9.144947 ng/mL [3]: 338
luminescence, ADCC reporter, 27.43484 ng/mL [3]: 341
luminescence, ADCC reporter, 82.30453 ng/mL [3]: 426
luminescence, ADCC reporter, 246.9136 ng/mL [3]: 508
luminescence, ADCC reporter, 740.7407 ng/mL [3]: 623
luminescence, ADCC reporter, 2,222.222 ng/mL [3]: 1020
luminescence, ADCC reporter, 6,666.667 ng/mL [3]: 1180
luminescence, ADCC reporter, 20,000 ng/mL [3]: 1220
B2: anti-MS4A4A antibody 4A-313 K322A huIgG1 (antibody)
heavy: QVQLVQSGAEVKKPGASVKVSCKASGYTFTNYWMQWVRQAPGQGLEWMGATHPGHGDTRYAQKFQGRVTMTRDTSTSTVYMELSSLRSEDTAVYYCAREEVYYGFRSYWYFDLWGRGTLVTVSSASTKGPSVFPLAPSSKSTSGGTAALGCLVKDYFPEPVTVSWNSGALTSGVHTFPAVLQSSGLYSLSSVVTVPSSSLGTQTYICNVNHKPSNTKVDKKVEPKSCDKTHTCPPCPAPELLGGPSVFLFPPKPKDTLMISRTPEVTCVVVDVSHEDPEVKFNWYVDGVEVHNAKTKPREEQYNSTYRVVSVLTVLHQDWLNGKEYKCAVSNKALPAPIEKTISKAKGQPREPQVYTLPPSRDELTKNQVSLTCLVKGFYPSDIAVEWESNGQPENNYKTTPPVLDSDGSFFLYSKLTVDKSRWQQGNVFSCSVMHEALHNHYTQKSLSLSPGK
light: EIVLTQSPATLSLSPGERATLSCRASESVDNYGVSRMNWYQQKPGQAPRLLIYGASNQGSGIPARFSGSGSGTDFTLTISSLEPEDFAVYYCQQSKEVPPTFGGGTKVEIKRTVAAPSVFIFPPSDEQLKSGTASVVCLLNNFYPREAKVQWKVDNALQSGNSQESVTEQDSKDSTYSLSSTLTLSKADYEKHKVYACEVTHQGLSSPVTKSFNRGEC

OD450 [1]: 0.116
B3: anti-MS4A4A antibody 4A-305 (antibody, human IgG1, V domains shown)
VH: EVQLVQSGAEVKKPGATVKISCKVSGYTFTNYWMQWVQQAPGKGLEWMGATHPGHGDTRYAEKFQGRVTITADTSTDTAYMELSSLRSEDTAVYYCAREEVYYGFRSYWYFDVWGRGTLVTVSS
VL: DIVMTQSPDSLAVSLGERATINCRASESVDNYGVSFMNWYQQKPGQPPKLLIYGASNQGSGVPDRFSGSGSGTDFTLTISSLQAEDVAVYYCQQSKEVPPTFGGGTKVEIK
notes: human IgG1/kappa

OD450 [1]: 0.121
B4: anti-MS4A4A antibody 4A-303 (antibody, human IgG1, V domains shown)
VH: EVQLVQSGAEVKKPGESLKISCKGSGYTFTNYWMQWVRQMPGKGLEWMGATHPGHGDTRYSPSFQGQVTISADKSISTAYLQWSSLKASDTAMYYCAREEVYYGFRSYWYFDVWGRGTLVTVSS
VL: DIVMTQSPDSLAVSLGERATINCRASESVDNYGVSFMNWYQQKPGQPPKLLIYGASNQGSGVPDRFSGSGSGTDFTLTISSLQAEDVAVYYCQQSKEVPPTFGGGTKVEIK
notes: human IgG1/kappa

OD450 [1]: 0.126
B5: anti-MS4A4A antibody 4A-307 (antibody, human IgG1, V domains shown)
VH: QVQLVQSGAEVKKPGASVKVSCKASGYTFTNYWMQWVRQAPGQGLEWMGATHPGHGDTRYAQKFQGRVTMTADKSTSTVYMELSSLRSEDTAVYYCAREEVYYGFRSYWYFDVWGRGTLVTVSS
VL: DIVMTQSPDSLAVSLGERATINCRASESVDNYGVSFMNWYQQKPGQPPKLLIYGASNQGSGVPDRFSGSGSGTDFTLTISSLQAEDVAVYYCQQSKEVPPTFGGGTKVEIK
notes: human IgG1/kappa

OD450 [1]: 0.118
B6: anti-MS4A4A antibody 4A-310 (antibody, human IgG1, V domains shown)
VH: EVQLVQSGAEVKKPGESLKISCKGSGYTFTNYWMQWVRQMPGKGLEWMGATHPGHGDTRYSPSFQGQVTISADKSSSTAYLQWSSLKASDTAMYYCAREEVYYGFRSYWYFDVWGRGTLVTVSS
VL: DIVMTQSPDSLAVSLGERATINCRASESVDNYGVSFMNWYQQKPGQPPKLLIYGASNQGSGVPDRFSGSGSGTDFTLTISSLQAEDVAVYYCQQSKEVPPTFGGGTKVEIK
notes: human IgG1/kappa

OD450 [1]: 0.122
B7: anti-MS4A4A antibody 4A-311 (antibody, human IgG1, V domains shown)
VH: EVQLVQSGAEVKKPGATVKISCKVSGYTFTNYWMQWVQQAPGKGLEWMGATHPGHGDTRYAEKFQGRVTITADKSTSTAYMELSSLRSEDTAVYYCAREEVYYGFRSYWYFDVWGRGTLVTVSS
VL: DIVMTQSPDSLAVSLGERATINCRASESVDNYGVSFMNWYQQKPGQPPKLLIYGASNQGSGVPDRFSGSGSGTDFTLTISSLQAEDVAVYYCQQSKEVPPTFGGGTKVEIK
notes: human IgG1/kappa

MFI (human MS4A4A): 350
OD450 [1]: 1.79
B8: anti-MS4A4A antibody 4A-333 (antibody, human IgG1, V domains shown)
VH: QVQLVQSGSELKKPGASVKVSCKASGYIFTSYGLSWVRQAPGQGLEWMGWINTYSGVPTYAQGFTGRFVFSLDTSVSTTYLQISSLKAEDTAVYYCARSLVDYWGQGTLVTVSS
VL: DVVMTQSPLSLPVTLGQPASISCKSSQSLLYSDGKTYLSWFQQRPGQSPRRLIYLVSKLDSGVPDRFSGSGSGTDFTLKISRVEAEDVGVYYCWQGIDFHQTFGGGTKVEIK
notes: humanized 4A-21; human IgG1/kappa

OD450 [1]: 0.162
B9: anti-MS4A4A antibody 4A-341 (antibody, human IgG1, V domains shown)
VH: QVQLVQSGAEVKKPGASVKVSCKASGYIFTSYGLSWVRQAPGQRLEWMGWINTYSGVPTYSQKFQGRVTITRDTSASTAYMELSSLRSEDTAVYYCARSLVDYWGQGTLVTVSS
VL: DVVMTQTPLSLSVTPGQPASISCKSSQSLLYSDGKTYLSWYLQKPGQPPQLLIYLVSKLDSGVPDRFSGSGSGTDFTLKISRVEAEDVGVYYCWQGIDFHQTFGGGTKVEIK
notes: as for B8

OD450 [1]: 0.141
B10: anti-MS4A4A antibody 4A-347 (antibody, human IgG1, V domains shown)
VH: QVQLVQSGAEVKKPGASVKVSCKASGYIFTSYGLSWVRQAPGQRLEWMGWINTYSGVPTYSQKFQGRVTITLDTSASTTYMELSSLRSEDTAVYYCARSLVDYWGQGTLVTVSS
VL: DIVMTQTPLSLSVTPGQPASISCKSSQSLLYSDGKTYLSWYLQKPGQPPQLLIYLVSKLDSGVPDRFSGSGSGTDFTLKISRVEAEDVGVYYCWQGIDFHQTFGGGTKVEIK
notes: as for B8

MFI (human MS4A4A): 286
OD450 [1]: 1.66
B11: anti-MS4A4A antibody 4A-335 (antibody, human IgG1, V domains shown)
VH: QVQLVQSGSELKKPGASVKVSCKASGYIFTSYGLSWVRQAPGQGLEWMGWINTYSGVPTYAQGFTGRFVFSLDTSVSTAYLQISSLKAEDTAVYYCARSLVDYWGQGTLVTVSS
VL: DVVMTQTPLSSPVTLGQPASISCKSSQSLLYSDGKTYLSWLQQRPGQPPRLLIYLVSKLDSGVPDRFSGSGAGTDFTLKISRVEAEDVGVYYCWQGIDFHQTFGGGTKVEIK
notes: as for B8

OD450 [1]: 0.146
B12: anti-MS4A4A antibody 4A-340 (antibody, human IgG1, V domains shown)
VH: QVQLVQSGAEVKKPGASVKVSCKASGYIFTSYGLSWVRQAPGQRLEWMGWINTYSGVPTYSQKFQGRVTITLDTSASTTYMELSSLRSEDTAVYYCARSLVDYWGQGTLVTVSS
VL: DVVMTQTPLSLSVTPGQPASISCKSSQSLLYSDGKTYLSWYLQKPGQPPQLLIYLVSKLDSGVPDRFSGSGSGTDFTLKISRVEAEDVGVYYCWQGIDFHQTFGGGTKVEIK
notes: as for B8

OD450 [1]: 0.132
B13: anti-MS4A4A antibody 4A-345 (antibody, human IgG1, V domains shown)
VH: QVQLVQSGAEVKKPGASVKVSCKASGYIFTSYGLSWVRQAPGQRLEWMGWINTYSGVPTYSQKFQGRVTITRDTSASTAYMELSSLRSEDTAVYYCARSLVDYWGQGTLVTVSS
VL: DIVMTQTPLSLSVTPGQPASISCKSSQSLLYSDGKTYLSWYLQKPGQPPQLLIYLVSKLDSGVPDRFSGSGSGTDFTLKISRVEAEDVGVYYCWQGIDFHQTFGGGTKVEIK
notes: as for B8

MFI (human MS4A4A): 296
OD450 [1]: 1.53
B14: anti-MS4A4A antibody 4A-334 (antibody, human IgG1, V domains shown)
VH: QVQLVQSGSELKKPGASVKVSCKASGYIFTSYGLSWVRQAPGQGLEWMGWINTYSGVPTYAQGFTGRFVFSLDTSVSTAYLQISSLKAEDTAVYYCARSLVDYWGQGTLVTVSS
VL: DIVMTQTPLSSPVTLGQPASISCKSSQSLLYSDGKTYLSWLQQRPGQPPRLLIYLVSKLDSGVPDRFSGSGAGTDFTLKISRVEAEDVGVYYCWQGIDFHQTFGGGTKVEIK
notes: as for B8

MFI (human MS4A4A): 309
OD450 [1]: 1.7
B15: anti-MS4A4A antibody 4A-336 (antibody, human IgG1, V domains shown)
VH: QVQLVQSGSELKKPGASVKVSCKASGYIFTSYGLSWVRQAPGQGLEWMGWINTYSGVPTYAQGFTGRFVFSLDTSVSTAYLQISSLKAEDTAVYYCARSLVDYWGQGTLVTVSS
VL: DVVMTQTPLSSPVTLGQPASISCKSSQSLLYSDGKTYLSWLQQRPGQPPRRLIYLVSKLDSGVPDRFSGSGAGTDFTLKISRVEAEDVGVYYCWQGIDFHQTFGGGTKVEIK
notes: as for B8
